# In PMC10200060, “Inhibition of DAMP actions in the tumoral microenvironment using lactoferrin-glycyrrhizin conjugate for glioblastoma therapy” (Biomaterials Research, 2023):
# pKd: −log10 of the molar value.
# Key:
# [1] = molecular target: human recombinant HMGB1 protein (high-mobility group box-1) (human) (UniProt P09429)
# [2] = molecular target: human recombinant HMGB1 protein (high-mobility group box-1) (human) (UniProt P09429); experiment: SPR; human recombinant HMGB1 immobilised on a CMDH chip (immobilisation buffer 10 mM S.A., pH 4.5); analytes flowed at 30 uL/min; running buffer PBS pH 7.4; association and dissociation 3 min each; room temperature; Reichert SR7500DC, Scrubber2
# Chain of human recombinant HMGB1 protein (high-mobility group box-1) (human) (P09429 whole entry): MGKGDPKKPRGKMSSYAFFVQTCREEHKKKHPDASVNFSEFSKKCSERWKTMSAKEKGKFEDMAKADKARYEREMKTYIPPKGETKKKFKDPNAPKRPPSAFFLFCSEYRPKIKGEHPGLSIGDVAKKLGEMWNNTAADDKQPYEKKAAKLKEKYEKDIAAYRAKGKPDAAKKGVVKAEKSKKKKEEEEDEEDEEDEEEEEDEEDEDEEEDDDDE
Substance,"reduction of HUVEC proliferation in Transwell co-culture with U87MG (CCK-8, 24 h, 100 uM GL equivalent) [1] [%]",pKd [2]
lactoferrin human (Lf) (natural protein),8.2,6.78
lactoferrin-glycyrrhizin conjugate Lf-GL (1:4),,6.23
lactoferrin-glycyrrhizin conjugate Lf-GL (1:10),13,7.64
lactoferrin-glycyrrhizin conjugate Lf-GL (1:15),,7.49
